{"source": "paper PMC7116727", "target": "S2 component of the furin-cleaved SARS-CoV-2 spike ectodomain ('2P' mutant) (SARS-CoV-2) (UniProt P0DTC2)", "test": "cryo-EM structure", "data": [{"substance": "S2 component of the furin-cleaved SARS-CoV-2 spike ectodomain ('2P' mutant) (from UniProt P0DTC2) (domain or fragment)", "values": [{"measurement": "stoichiometry N", "result": 3}]}]}
